Assay: soluble on expression in E. coli; label from the status in PepcDB or PDB records

Sequence: MKLIGIVGSNADSSYNRLLLQYIGKEFYKMFDLEILEIKDIPMFNQSKDQTNSVLIQNMNRKILQADGVIIATPEHNHTIPAGLKSVLEWLSFKIHPLENKPVMIVGCSYYDQGTSRAQLHLRQILDAPGVNAIVMPGNEFLLGKAKEAFDENGNLIAEGTRQFLESTLQKFVEFIDVISKLEGAKPKDLPEDLHAKGTIETTIEGVDMAADDWVEQAAEAVQAVEGDTYVKLDRGILTVDQLNYFLKSMPMELTYADSNNQFLYYNKKMAAEEMFAKRQPGQVGNPLANCHPPKALKNVEWVIQQLRSGKTDAIRVHVPMHGPDTYVVHNYQAMYDDNGNYAGINEYILDFKPIVDWYLKQTGQELVGGKNVDAVSGASKKEAPETADSVSSASVHEEESATEKPTVDSVSSASIKE
- soluble on expression in E. coli: not soluble

Sequence: GFSSEVLKKAYDDTEDIEDQLQQAEGRLFEISQHNMKQDVQPIDPIIKEALGEIQIAANRKEGLSGQPSGFPAIDKLTAGWQASDLIIIAARPAMGKTAFVLSMAKNMAIDYNIPVAIFNLEMSSVQLVKRLMSNVCEIPGEKLKTGRLESHEWVQLDTKLKDFENKPLYIDDTPSLSVFELRTKSRRLVREYGVKVIIIDYLQLMNASGMSFGNREQEVSTISRSLKVLAKELKIPIIALSQLNRSVETRQGDINSKRPQLSDLRESGAIEQDADMVCFIHRPEYYKITEDQQGNSLLGIGEFIIAKHRNGPVDDVRLRFRSEFAKFLPLEAESMVKRHSRIGGSPVEMGVGNGSFAPPLPPPEDNPLLSGPYSSGTSEADFLAEASGIDNPF
- soluble on expression in E. coli: not soluble

Sequence: MKDSSRAELMRKVQETSFACVDMNLYLDNHPDDKNAINTYNSLCNQFAQARYAYENKYGPLTNFGYAPSRCPWQWADQPWPWDREFNYLEHHHHHH
- soluble on expression in E. coli: soluble

Sequence: MSLIPSSGPSAKKVVSLGQQSEAQIPEVELIDVNHAVAQSLYKAQVNQSFTQFGDGYASTGTLNIGDVLDIMIWEAPPAVLFGGGLSSMGSGSAQQTKLPEQLVTARGTVSVPFVGDISVVGKTPGQVQEIIKGRLKKMANQPQVMVRLVQNNAANVSVIRAGNSVRMPLTAAGERVLDAVAAVGGSTANVQDTNVQLTRGNVVRTVALEDLVANPRQNILLRRGDVVTMITNPYTFTSMGAVGRTQEIGFSARGLSLSEAIGRMGGLQDRRSDARGVFVFRYTPLVELPAERQDKWIRQGYGSEAEIPTVYRVNMADAHSLFSMQRFPVKNKDVLYVSNAPLAEVQKFLSFVFSPVTSGANSINNLTNEGHHHHHH
- soluble on expression in E. coli: soluble

Sequence: MGHHHHHHSHMAIVEHLYQQGMLSVAEELCQESTLNVDLDFKQPFLELNRILEALHEQDLGPALEWAVSHRQRLLELNSSLEFKLHRLHFIRLLAGGPAKQLEALSYARHFQPFARLHQREIQVMMGSLVYLRLGLEKSPYCHLLDSSHWAEICETFTRDACSLLGLSVESPLSVSFASGCVALPVLMNIKAVIEQRQCTGVWNHKDELPIEIELGMKCWYHSVFACPILRQQTSDSNPPIKLICGHVISRDALNKLINGGKLKCPYCPMEQNPADGKRIIF
- soluble on expression in E. coli: not soluble

Sequence: VNSVQIKNATAIVTGASSGIGLAFASLLAQKGYNLLLIARNINKLNDLAKTLSTQYDTQCNVLSIDLSEENASKKVLEYIITNNLNISVLINNAGFSGNYKFLEADWSQLSKELNVMSIAVTELCYLIAPLMEKNSWGRIINVSSGAAYLPPTQSLLYTGLKSYVLNFSQSLDMELKPKGINVTALCPGFTRSEFHNTMGTNKQVSKVPNFLWQA
- soluble on expression in E. coli: not soluble

Sequence: MLKKHLTTQLFQKKKKKKLHLVLDLDHTLLHSVLVSDLSKREKYLLEETDSRQDLWRRNVDGYEFIIKLRPFLHEFLLEANKLFTMHVYTMGSSSYAKQVLKLIDPDKVYFGKRVITREASPFNKSLDLLAADKRRVVIVDDTVHVWPFHKRNLLQITKYVYFKVDGTKWDSYAEAKKDESQSNGSLANVLKFLEDVHKRFEEDLGFKDLRLLIPCRQCCY
- soluble on expression in E. coli: soluble

Sequence: NVLLLDVTPLTLGIETFGGAFSPLIPRNTTVPVKKTEIFSTGVDGQAGVDIKVFQGERGLVRNNKLIGDLKLTGITPLPKGIPQIYVTFDIDADGIINVSAAEKSSGKQQSITVIPNSGLSEEEIAKLIEEANANRAQDNLIRQRLELISKADIMISDTENLFKRYEKLISSEKEYSNIVEDIKALRQAIKNFKANENDMSIDVNGIKKATDALQGRALKLFQSATKNQQNQGK
- soluble on expression in E. coli: soluble

Sequence: MSLQKLAFSYVRFSSLKQRHGDSLKRQTDMVANWLLANPEYKLSGETSYQDLGKSGFSGAHLDNAFGRLLAAIENGAIPKGSAILIEQIDRAGRMEPMEMLPLLSRIVNAGVDLVTLDDGITYDRASVNSNHLFLLVAKVQQAHQYSDSLSRRLRAAYQTKRAKAAAGEGATRRMPLWIRDGKLRDDIAPFVTQVFEDYAAGIGERRILGRLKGQHPDFETISPSTFRRWLRNPVAVGRWNDIEDVWPAVVSKELWFRVQKRLTDGVKPKAASSKYLLSGLVKCARCGKNYCVGGQKGALTMLCVSRHRFGSGAGGCTNKRSIPYAVFDFIRSQTAHAALVRASQSQNLTASEKRQIEIDGELIELRKQSSHAAEGLVRYGMVKEITDVLDRVTDQIDRLEKERVMLQAVPAPATLDDMIDVENDLLDDDIVKLNALLQGVGYEMVVDDRTIVVCEASVFSTLQSQTYRYIGADRVTGTYKVTANDEVLHHLPNLDSKVQQDEYAEFLKKEARYESGELKRDEFRFNLETGEINREGHHHHHH
- soluble on expression in E. coli: not soluble

Sequence: MSMPETKTRSVALTPPLHTPRLLLLPLQLEDAPAMQSLFNHWEVVRYLTHHVPWPYPEGEALRYLREDALPAMQDGEEWHWSIRLRSQQDRLIGSACMMDEQDNNRGFWLSPAYQGLGLMSEVCVAIDRFWFETLKRPVLRVAKCALNEASCRLSQREGMRLVTVQESQFVCGTTQEQLWELTRDEWRANNGG
- soluble on expression in E. coli: not soluble

Sequence: LKKKVKRTCSNCLKGTAININNDILCIEKGIVSSDYVCSKHRFMPSFSSIKRKIHTCIDCEHFIIFDTSNVEDRAFGICELFTVRKYDGKNKKVCSKFVKRVKKEVC
- soluble on expression in E. coli: not soluble

Sequence: MASTIKEALSVVSEDQSLFECAYGTPHLAKTEMTASSSSDYGQTSKMSPRVPQQDWLSQPPARVTIKMECNPSQVNGSRNSPDECSVAKGGKMVGSPDTVGMNYGSYMEEKHMPPPNMTTNERRVIVPADPTLWSTDHVRQWLEWAVKEYGLPDVNILLFQNIDGKELCKMTKDDFQRLTPSYNADILLSHLHYLRETPLPHLTSDDVDKALQNSPRLMHARNTGGAAFIFPNTSVYPEATQRITTRPDLPYEPPRRSAWTGHGHPTPQSKAAQPSPSTVPKTEDQRPQLDPYQILGPTSSRLANPGSGQIQLWQFLLELLSDSSNSSCITWEGTNGEFKMTDPDEVARRWGERKSKPNMNYDKLSRALRYYYDKNIMTKVHGKRYAYKFDFHGIAQALQPHPPESSLYKYPSDLPYMGSYHAHPQKMNFVAPHPPALPVTSSSFFAAPNPYWNSPTGGIYPNTRLPTSHMPSHLGTYY
- soluble on expression in E. coli: soluble

Sequence: MGSDKIHHHHHHMKLETIDYRAQDSAQRFVESLRETGFGVLSNHPIDKALVDTIYEEWQAFFNSDEKHDYLFKPETHDGFFPADVSETAKGHTVKDIKEYYHVYPWGRIPDSLRENILRYYQEANALAEELLGWVEAHTPAEVAVNYSIALPKMIENSHKTLLRILHYPPMSGDEELGAIRAAAHEDINLLTVLPAANEPGLQVKAKSGEWLDVPSDFGNLIINIGDMLQEASGGYFPSTTHRVVNPEGADKTRSRISLPLFLHPKPEVVLSERYTADSYLMERLRELGVI
- soluble on expression in E. coli: not soluble

Sequence: MSKEPGEDVDLFDMEQFQSSFKRILQRALKNVTVSFRVYEKDSVWIRVAWGTQYSQPNQYKPTFVVYYPQTPYAFISSCHLKNTVPLLHQALKVASKHHQIVHLDLRSRHLDSLKAIVFREYNQTCENYSSTTSLQEASLSMCLDSKITHENTEEKVRVHRVTQETFGTYPQPQLEFAQYKLETKFKSNIGGGLLADRKEPFRCLVKFSSPHLLEALKSLAPAGIADAPLSPLLTCIPSKKMNYFKIRDK
- soluble on expression in E. coli: not soluble

Sequence: MSLSQVQVDRALAGLIVRAPLPAGWRAERMSALDVAAVAAVEQAAFAFPWSRGNFEDSLKSGHLGIVLRDGGNQVAGYLILMPVVDEMHLLNVTVAPAWQRQGLGRWLLRAAQALTLAHGFASLLLEVRPSNAGAIALYRRVGFAEIGRRKRYYPAENNTREDALVMRIACEAGGVEAAEGHHHHHH
- soluble on expression in E. coli: not soluble

Sequence: MNVVIVRYGEIGTKSRQTRSWFEKILMNNIREALVTEEVPYKEIFSRHGRIIVKTNSPKEAANVLVRVFGIVSISPAMEVEASLEKINRTALLMFRKKAKEVGKERPKFRVTARRITKEFPLDSLEIQAKVGEYILNNENCEVDLKNYDIEIGIEIMQGKAYIYTEKIKGWGGLPIGTEGRMIGILHDELSALAIFLMMKRGVEVIPVYIGKDDKNLEKVRSLWNLLKRYSYGSKGFLVVAESFDRVLKLIRDFGVKGVIKGLRPNDLNSEVSEITEDFKMFPVPVYYPLIALPEEYIKSVKERLGL
- soluble on expression in E. coli: soluble

Sequence: MSNSVTNFEMSSVLPGKKPCQGKNNESQVVQTTPIKKHSVTFKNQSSLGVIDHYARLTNKSHSSVIAEVVDLAIPILEKCNRHNWSINEIKNDLLKFSIKESINRSRGKTEVTLEEYCSLIWKTNIMSPLKIPIADYFQLNANDEFMGKDEKTVIRERLSSLRENYDMEKAIYIYNQRHFDVKHQSVSGYSNIILIHRTTFEGYYFDAGQALLLSTSQLIIFGINEVLRRKGIVMPYPVVCWIDIYHVNEMVVMLPVLRKTDVSNRVNVPDDIIINPYSQESRT
- soluble on expression in E. coli: soluble

Sequence: MIHEITLDGKIVRYKVVEKPVKYVTLRFLEDGTLLVVTPSKEIVREVLIKKRNWILSKLSIIEEAKELAGEGFPLFGRFYSLEIGEKFEIDDKNRIIIYPGIDVLRDWIKKEVKRRAQEISKEFGVAPKRIYVRVMKTKWGSTTWRKSVTLNLSSVALPEELFHYLVIHELAHLIELNHSKRFWSIVARYHPDYKEKRRELKKWWFIVHLNETWRAILQWPGGGSSSSWALEHHHHHH
- soluble on expression in E. coli: soluble

Sequence: MRKYRLSEEQRAFSYQEDGTKKSVLLRQIIAISDFNDVIAGTAGGWIDRETVLAQEGNCWIYDQNAIAFGGTVISGNTRITGTSVLWGEVYATDNVWIDNSEISQGAYISDSVTIHDSLVYVQCRIFGHALIDQHSMIVAAQGLTPDHQLLLQIYDRARVSASRIVHQAQIYGDAVVRYAFIEHRAEVFDFASVEGNEENNVWLCDCAKVYGHAQVKAGIEEDAIPTIHYSSQVAEYAIVEGNCVLKHHVLIGGNAVVRGGPILLDEHVVIQGESRITGAVIIENHVELTDHAVVEAFDGDTVHVRGPKVINGEERITRTPLAGLLLEHHHHHH
- soluble on expression in E. coli: not soluble

Sequence: MDYTEESAQIPEMAEKLGIPTSRKETKTLELPVSIDFRNWCSPIEDQMDLGSCTAHAGVGVVEYFERRAFGKHIDGSRFFVYKTTRNLMGVKGDTGAWLRNTMGALALCGVPPEKYFPYTSRKTPGPDGEPTFDDEPSSFVYSLADNFEALNYFCHDPQGMNLPPEDVILSVKKYLAAGIPSMFGFYGFPSFKDTDVKGGIPFPGPDERSIWGHAVVAVGYDDNMKIRNTLSNKETTGAFLIRNSWGTAWGDKGYGWLPYEYALNKFALDFWSLISMKWVETGNFGLELESSRSRARETLSRDMPLPHALEHHHHHH
- soluble on expression in E. coli: not soluble

Sequence: MKKQQFIDMQEQGTSTIPNLLLTHYKQLGLNETELILLLKIKMHLEKGSYFPTPNQLQEGMSISVEECTNRLRMFIQKGFLFIEECEDQNGIKFEKYSLQPLWGKLYEYIQLAQNQTQERKAEGEQKLEHHHHHH
- soluble on expression in E. coli: soluble

— the DeepSol protein solubility set
